Cells PE-A Mean data for one substance are collected here from patent US20200385482A1.

Test [1] concerns the target human C-type lectin domain family 2 member (hCLEC2D) expressed on transfected 300.19 cells (human) (UniProt Q9UHP7). As to the kind of experiment: FACS, hCLEC2D 300.19 cells, assay 1, Ab 0.1 ug/ml.
Test [2] shares this target. The test is described as follows: FACS, hCLEC2D 300.19 cells, assay 1, Ab approx 10 ug/ml. In general terms: Flow cytometry measures light scatter and fluorescence of single cells or particles in a stream.
The target is the same in test [3]. The test is described as follows: FACS, hCLEC2D 300.19 cells, assay 2, Ab approx 10 ug/ml.
For test [4] the target is unchanged. As to the kind of experiment: FACS, hCLEC2D 300.19 cells, assay 2, Ab 0.1 ug/ml.
For test [5] the target is unchanged. The test is described as follows: FACS, hCLEC2D 300.19 cells, assay 2, Ab 1 ug/ml.
Test [6] shares this target. The test is described as follows: FACS, hCLEC2D 300.19 cells, assay 1, Ab 0.01 ug/ml.
Test [7] shares this target. The test is described as follows: FACS, hCLEC2D 300.19 cells, assay 1, Ab 1 ug/ml.
Test [8] has the same target. The test is described as follows: FACS, hCLEC2D 300.19 cells, assay 2, Ab 0.01 ug/ml.

Chain of human C-type lectin domain family 2 member (hCLEC2D) expressed on transfected 300.19 cells (human) (Q9UHP7 whole entry, the tested form may be a part): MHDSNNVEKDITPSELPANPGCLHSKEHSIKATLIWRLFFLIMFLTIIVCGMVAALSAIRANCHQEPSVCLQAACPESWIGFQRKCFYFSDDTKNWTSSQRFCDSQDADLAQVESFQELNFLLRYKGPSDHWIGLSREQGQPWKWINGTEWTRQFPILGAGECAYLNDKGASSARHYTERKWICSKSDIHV

As for control hIgG (antibody), the Cells PE-A Mean is 175 MFI in test [1]; 1540 MFI in test [2]; 1540 MFI in test [3]; 175 MFI in test [4]; 351 MFI in test [5]; 146 MFI in test [6]. For the same substance, the results for the Cells PE-A Mean in test [7] and in test [8] were 351 MFI and 146 MFI, respectively.
